The target of experiment [1] is human MSLN (mesothelin) (human) (UniProt Q13421). Kind of experiment: cell-based or functional assay.
Experiment [2] addresses human MSLN (human) (UniProt Q13421). Kind of experiment: cell-based affinity, flow cytometry on target-transfected CHO cells, nonlinear regression (one site - specific binding), mean of three measurements. (In general: In flow cytometry, cells or beads pass a laser one at a time.)
Experiment [3] has the same target. The experiment is described as follows: cell-based or functional assay.

B1: CH3 15-E11 VAG CC×I2L×G4×scFc×MS 15-B12 CC×I2L clipopt ID (SEQ ID NO 434) (bispecific antibody)
chain: QVQLVQSGAEVKKPGASVKVSCKASGYTFTNYWMNWVRQAPGQCLEWMGNIAYGVAGTNYNQKFQGRVTMTVDTSSSTAYMELSRLRSDDTAVYYCATRYFYVMDYWGQGTLVTVSSGGGGQGGGGQGGGGQDIQMTQSPSSLSASVGDRVTITCRASQDISNYLNWYQQKPGKVPKLLIYYTSRLHSGVPSRFSGSGSGTDFTLTISSLQPEDVATYYCVQYAQFPLTFGCGTKVEIKSGGGGQEVQLVESGGGLVQPGGSLKLSCAASGFTFNKYAMNWVRQAPGKGMEWVARIRSKYNNYATYYADAVKDRFTISRDDSKNTLYLQMNNLKTEDTAVYYCVRAGNFGSSYISYFAYWGQGTLVTVSSGGGGQGGGGQGGGGQQTVVTQEPSLTVSPGGTVTITCGSSTGAVTSGNYPNWIQKKPGQAPRGLIGGTKFLAPGTPARFSGSLEGGKAALTLSGVQPEDEAEYYCVLYYSNRWVFGSGTKLTVLGGGGCPPCPAPELLGGPSVFLFPPKPKDTLMISRTPEVTCVVVDVSHEEPEVKFNWYVDGVEVHNAKTKPCEEQYGSTYRCVSVLTVLHQDWLNGKEYKCKVSNKALPAPIEKTISKAKGQPREPQVYTLPPSREEMTKNQVSLTCLVKGFYPSDIAVEWESNGQPENNYKTTPPVLDSDGSFFLYSKLTVDKSRWQQGNVFSCSVMHEALHNHYTQKSLSLSPGKGGGGQGGGGQGGGGQGGGGQGGGGQGGGGQCPPCPAPELLGGPSVFLFPPKPKDTLMISRTPEVTCVVVDVSHEEPEVKFNWYVDGVEVHNAKTKPCEEQYGSTYRCVSVLTVLHQDWLNGKEYKCKVSNKALPAPIEKTISKAKGQPREPQVYTLPPSREEMTKNQVSLTCLVKGFYPSDIAVEWESNGQPENNYKTTPPVLDSDGSFFLYSKLTVDKSRWQQGNVFSCSVMHEALHNHYTQKSLSLSPGKGGGGQVQLQESGPGLVKPSETLSLTCTVSGGSISSSSYFWGWIRQPPGKCLEWIGNIYYSGSSNYNPSLKSRVTISVDTSKNQFSLKLSSVTAADTAVYYCARLPRGDRDAFDIWGQGTMVTVSSGGGGQGGGGQGGGGQDIVMTQSPSSLSASVGDRVTITCRASQGISNYLAWYQQKPGKVPKLLIYAASTLQSGVPSRFSGSGSGTDFTLTISSLQPEDFATYYCQQSYSTPFTFGCGTKVEIKSGGGGQEVQLVESGGGLVQPGGSLKLSCAASGFTFNKYAMNWVRQAPGKGMEWVARIRSKYNNYATYYADAVKDRFTISRDDSKNTLYLQMNNLKTEDTAVYYCVRAGNFGSSYISYFAYWGQGTLVTVSSGGGGQGGGGQGGGGQQTVVTQEPSLTVSPGGTVTITCGSSTGAVTSGNYPNWIQKKPGQAPRGLIGGTKFLAPGTPARFSGSLEGGKAALTLSGVQPEDEAEYYCVLYYSNRWVFGSGTKLTVL
Turning to B1, in experiment [1], the cytotoxicity EC50, GSU KO CDH3 cells was determined as 75.2 pM and the cytotoxicity EC50, HCT 116 KO CDH3 cells turned out to be 5.9 pM.

B2: CH3 15-E11 CC × I2L × G4 × scFc × G4 × MS 15-B12 CC × I2L_GQ (bispecific antibody)
chain: QVQLVQSGAEVKKPGASVKVSCKASGYTFTNYWMNWVRQAPGQCLEWMGNIAYGVKGTNYNQKFQGRVTMTVDTSSSTAYMELSRLRSDDTAVYYCATRYFYVMDYWGQGTLVTVSSGGGGQGGGGQGGGGQDIQMTQSPSSLSASVGDRVTITCRASQDISNYLNWYQQKPGKVPKLLIYYTSRLHSGVPSRFSGSGSGTDFTLTISSLQPEDVATYYCVQYAQFPLTFGCGTKVEIKSGGGGQEVQLVESGGGLVQPGGSLKLSCAASGFTFNKYAMNWVRQAPGKGMEWVARIRSKYNNYATYYADAVKDRFTISRDDSKNTLYLQMNNLKTEDTAVYYCVRAGNFGSSYISYFAYWGQGTLVTVSSGGGGQGGGGQGGGGQQTVVTQEPSLTVSPGGTVTITCGSSTGAVTSGNYPNWIQKKPGQAPRGLIGGTKFLAPGTPARFSGSLEGGKAALTLSGVQPEDEAEYYCVLYYSNRWVFGSGTKLTVLGGGGCPPCPAPELLGGPSVFLFPPKPKDTLMISRTPEVTCVVVDVSHEEPEVKFNWYVDGVEVHNAKTKPCEEQYGSTYRCVSVLTVLHQDWLNGKEYKCKVSNKALPAPIEKTISKAKGQPREPQVYTLPPSREEMTKNQVSLTCLVKGFYPSDIAVEWESNGQPENNYKTTPPVLDSDGSFFLYSKLTVDKSRWQQGNVFSCSVMHEALHNHYTQKSLSLSPGKGGGGQGGGGQGGGGQGGGGQGGGGQGGGGQCPPCPAPELLGGPSVFLFPPKPKDTLMISRTPEVTCVVVDVSHEEPEVKFNWYVDGVEVHNAKTKPCEEQYGSTYRCVSVLTVLHQDWLNGKEYKCKVSNKALPAPIEKTISKAKGQPREPQVYTLPPSREEMTKNQVSLTCLVKGFYPSDIAVEWESNGQPENNYKTTPPVLDSDGSFFLYSKLTVDKSRWQQGNVFSCSVMHEALHNHYTQKSLSLSPGKGGGGQVQLQESGPGLVKPSETLSLTCTVSGGSISSSSYFWGWIRQPPGKCLEWIGNIYYSGSSNYNPSLKSRVTISVDTSKNQFSLKLSSVTAADTAVYYCARLPRGDRDAFDIWGQGTMVTVSSGGGGQGGGGQGGGGQDIVMTQSPSSLSASVGDRVTITCRASQGISNYLAWYQQKPGKVPKLLIYAASTLQSGVPSRFSGSGSGTDFTLTISSLQPEDFATYYCQQSYSTPFTFGCGTKVEIKSGGGGQEVQLVESGGGLVQPGGSLKLSCAASGFTFNKYAMNWVRQAPGKGMEWVARIRSKYNNYATYYADAVKDRFTISRDDSKNTLYLQMNNLKTEDTAVYYCVRAGNFGSSYISYFAYWGQGTLVTVSSGGGGQGGGGQGGGGQQTVVTQEPSLTVSPGGTVTITCGSSTGAVTSGNYPNWIQKKPGQAPRGLIGGTKFLAPGTPARFSGSLEGGKAALTLSGVQPEDEAEYYCVLYYSNRWVFGSGTKLTVL
With B2, the Kd in experiment [2] turned out to be 33800 pM. In experiment [3], this molecule returned an EC50 (cytotoxicity) on double positive cells; column head printed 'EC50 CHO hu CDH3 (+) & MSLN (+)'; value is that of HCT 116 wt in Table 46 of 0.071 pM; an EC50 (cytotoxicity); column head printed 'EC50 CHO hu CDH3 (+)', table title HCT 116; value is that of HCT 116 KO CDH3 in Table 46 of 51.8 pM; an EC50 on HCT 116 KO CDH3 (cytotoxicity; cells CDH3-, MSLN+) of 51.8 pM; an EC50 on HCT 116 wt (cytotoxicity; cells CDH3+, MSLN+) of 0.07 pM. In experiment [3], this molecule came in with a fold gap of column 6 (HCT 116 KO CDH3 by Table 46) against double positive cells of 727 fold.

B3: CH3 15-E11_1_VAG_CC × I2L × G4 × scFc × G4 × MS 15-B12 CC × I2L clipopt_DI (bispecific antibody)
chain: QVQLVQSGAEVKKPGASVKVSCKASGYTFTNYWMNWVRQAPGQCLEWMGNIAYGVAGTNYNQKFQGRVTMTVDTSSSTAYMELSRLRSDDTAVYYCATRYFYVMDYWGQGTLVTVSSGGGGQGGGGQGGGGQDIQMTQSPSSLSASVGDRVTITCRASQDISNYLNWYQQKPGKVPKLLIYYTSRLHSGVPSRFSGSGSGTDFTLTISSLQPEDVATYYCVQYAQFPLTFGCGTKVEIKSGGGGQEVQLVESGGGLVQPGGSLKLSCAASGFTFNKYAMNWVRQAPGKGMEWVARIRSKYNNYATYYADAVKDRFTISRDDSKNTLYLQMNNLKTEDTAVYYCVRAGNFGSSYISYFAYWGQGTLVTVSSGGGGQGGGGQGGGGQQTVVTQEPSLTVSPGGTVTITCGSSTGAVTSGNYPNWIQKKPGQAPRGLIGGTKFLAPGTPARFSGSLEGGKAALTLSGVQPEDEAEYYCVLYYSNRWVFGSGTKLTVLGGGGCPPCPAPELLGGPSVFLFPPKPKDTLMISRTPEVTCVVVDVSHEEPEVKFNWYVDGVEVHNAKTKPCEEQYGSTYRCVSVLTVLHQDWLNGKEYKCKVSNKALPAPIEKTISKAKGQPREPQVYTLPPSREEMTKNQVSLTCLVKGFYPSDIAVEWESNGQPENNYKTTPPVLDSDGSFFLYSKLTVDKSRWQQGNVFSCSVMHEALHNHYTQKSLSLSPGKGGGGQGGGGQGGGGQGGGGQGGGGQGGGGQCPPCPAPELLGGPSVFLFPPKPKDTLMISRTPEVTCVVVDVSHEEPEVKFNWYVDGVEVHNAKTKPCEEQYGSTYRCVSVLTVLHQDWLNGKEYKCKVSNKALPAPIEKTISKAKGQPREPQVYTLPPSREEMTKNQVSLTCLVKGFYPSDIAVEWESNGQPENNYKTTPPVLDSDGSFFLYSKLTVDKSRWQQGNVFSCSVMHEALHNHYTQKSLSLSPGKGGGGQVQLQESGPGLVKPSETLSLTCTVSGGSISSSSYFWGWIRQPPGKCLEWIGNIYYSGSSNYNPSLKSRVTISVDTSKNQFSLKLSSVTAADTAVYYCARLPRGDRDAFDIWGQGTMVTVSSGGGGQGGGGQGGGGQDIVMTQSPSSLSASVGDRVTITCRASQGISNYLAWYQQKPGKVPKLLIYAASTLQSGVPSRFSGSGSGTDFTLTISSLQPEDFATYYCQQSYSTPFTFGCGTKVEIKSGGGGQEVQLVESGGGLVQPGGSLKLSCAASGFTFNKYAMNWVRQAPGKGMEWVARIRSKYNNYATYYADAVKDRFTISRDDSKNTLYLQMNNLKTEDTAVYYCVRAGNFGSSYISYFAYWGQGTLVTVSSGGGGQGGGGQGGGGQQTVVTQEPSLTVSPGGTVTITCGSSTGAVTSGNYPNWIQKKPGQAPRGLIGGTKFLAPGTPARFSGSLEGGKAALTLSGVQPEDEAEYYCVLYYSNRWVFGSGTKLTVL
For B3, in experiment [2], the equilibrium dissociation constant (Kd) came out at 40000 pM.

By Kd is commonly meant the constant that tells how readily two partners part at equilibrium. Higher therefore signals a looser complex.
